Measurements published in patent publication US20020146846A1 (published 2002).

B1: anti-EGP-2 scFv fragment obtained from the murine hybridoma MOC31 (scFv)
chain: DIVMTQSAFSNPVTLGTSASISCRSTKSLLHSNGITYLYWYLQKPGQSPQLLIYQMSNLASGVPDRFSSSGSGTDFTLRISRVEAEDVGVYYCAQNLEIPRTFGGGTKLEIKRTPSHNSHQVPSAGGPTANSGTSGSQVQLQQSGPELKKPGETVKISCKASGYTFTNYGMNWVKQAPGRGLKWMGWINTYTGESTYADDFKGRFAFSLETSASAAYLQINNLKNEDTATYFCARFAIKGDYWGQGTTLTVSS
B2: anti-EGP-2 scFv fragment 4D5MOC-B (scFv)
chain: DIQMTQSPSSLSASVGDRVTITCRSTKSLLHSNGITYLYWYQQKPGKAPKLLIYQMSNLASGVPSRFSSSGSGTDFTLTISSLQPEDFATYYCAQNLEIPRTFGQGTKVELKRTPSHNSHQVPSAGGPTANSGTSGSEVQLVQSGPGLVQPGGSVRISCAASGYTFTNYGMNWVKQAPGKGLEWMGWINTYTGESTYADSFKGRFTFSLDTSASAAYLQINSLRAEDTAVYYCARFAIKGDYWGQGTLLTVSS

Tests used:
[1] = biological target: T1, human epithelial glycoprotein-2, recombinant soluble protein (M1-F259) with a six-histidine C-terminal tag (human, UniProt P16422 24-259); assay: SPR (BIAcore), EGP-2 amine-coupled to CM-5 chip, scFv injected, 20 C
T1 construct: range 1-259; The stated range M1-F259 starts at the initiator methionine; also called recombinant soluble EGP-2-antigen; immobilized EGP-2
T1 sequence: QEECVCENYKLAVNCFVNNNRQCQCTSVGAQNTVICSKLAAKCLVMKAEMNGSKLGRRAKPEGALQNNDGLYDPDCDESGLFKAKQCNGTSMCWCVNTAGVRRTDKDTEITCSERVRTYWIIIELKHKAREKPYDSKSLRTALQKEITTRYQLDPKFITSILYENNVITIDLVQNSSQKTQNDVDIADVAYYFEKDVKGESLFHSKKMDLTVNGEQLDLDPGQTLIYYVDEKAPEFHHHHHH

[2] = biological target: T2, epithelial glycoprotein-2 (EGP-2) on EGP-2 overexpressing SW2 cells (human, UniProt P16422 24-314); assay: RIA of 99mTc-labelled scFv on SW2 cells, 4 C
T2 construct: whole, on cells; Endogenous antigen of the human SW2 cell line; also called GA733-2; Ep-CAM
T2 sequence (looked up): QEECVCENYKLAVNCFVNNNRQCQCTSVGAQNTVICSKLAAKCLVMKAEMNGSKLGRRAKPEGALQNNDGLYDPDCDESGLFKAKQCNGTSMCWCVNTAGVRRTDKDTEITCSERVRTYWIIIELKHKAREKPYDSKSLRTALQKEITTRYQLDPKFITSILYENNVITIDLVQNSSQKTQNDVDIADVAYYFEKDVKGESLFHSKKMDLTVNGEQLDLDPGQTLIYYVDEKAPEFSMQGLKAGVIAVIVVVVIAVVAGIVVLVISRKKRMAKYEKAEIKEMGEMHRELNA

[3] = biological target: T1, human epithelial glycoprotein-2, …; assay: SPR (BIAcore), immobilized EGP-2, low density coating and high flow rate

Binder | Kd [1] [nM] | koff [1] [s⁻¹] | kon [1] [M⁻¹ s⁻¹] | Kd [2] [nM] | half-life of binding on its target [3] [min]
B1 | 3 | 0.0003 | 99000 | 10.8 | ~38
B2 | 3.9 | 0.000717 | 184000 | 3.7 | –
